The target of this experiment is T1, Recombinant GST-PKM2 (human, UniProt P14618 1-531).
T1 construct: pyruvate kinase M2 (PKM2), human cDNA in pGEX-6P-1; source: E. coli BL21 (DE3), purified (glutathione resin, dialysed in PBS)
Briefly: pull-down; recombinant His-PGAM1 immobilised on Ni-beads, mixed with recombinant GST-PKM2 or GST-ENO1; eluate analysed by western blot. As to conditions: both partners purified. On the technique in general: A western blot detects proteins with antibodies after separation by electrophoresis.

T1 sequence (P14618 whole entry): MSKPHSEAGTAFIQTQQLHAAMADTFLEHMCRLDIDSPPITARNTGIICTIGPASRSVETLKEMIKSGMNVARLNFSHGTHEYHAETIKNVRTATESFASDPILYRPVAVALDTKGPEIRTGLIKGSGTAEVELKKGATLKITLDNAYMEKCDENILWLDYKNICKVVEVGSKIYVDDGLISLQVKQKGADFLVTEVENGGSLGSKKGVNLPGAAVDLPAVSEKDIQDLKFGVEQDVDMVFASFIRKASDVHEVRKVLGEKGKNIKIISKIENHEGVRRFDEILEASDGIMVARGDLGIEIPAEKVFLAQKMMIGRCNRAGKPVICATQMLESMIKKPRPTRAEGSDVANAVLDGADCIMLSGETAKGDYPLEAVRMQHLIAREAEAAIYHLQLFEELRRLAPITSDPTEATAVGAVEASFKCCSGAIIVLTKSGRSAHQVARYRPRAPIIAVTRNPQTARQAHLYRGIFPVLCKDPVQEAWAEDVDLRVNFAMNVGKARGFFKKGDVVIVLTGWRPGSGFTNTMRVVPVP

B1: Recombinant His-PGAM1 (enzyme, human)
chain: MAAYKLVLIRHGESAWNLENRFSGWYDADLSPAGHEEAKRGGQALRDAGYEFDICFTSVQKRAIRTLWTVLDAIDQMWLPVVRTWRLNERHYGGLTGLNKAETAAKHGEAQVKIWRRSYDVPPPPMEPDHPFYSNISKDRRYADLTEDQLPSCESLKDTIARALPFWNEEIVPQIKEGKRVLIAAHGNSLRGIVKHLEGLSEEAIMELNLPTGIPIVYELDKNLKPIKPMQFLGDEETVRKAMEAVAAQGKAKK
notes: phosphoglycerate mutase 1 (PGAM1), human cDNA in pET-28a; also called His-tagged PGAM1; source: E. coli BL21 (DE3), purified (Ni resin, dialysed in PBS)
As for B1, the binding result is listed as “binds”.
